Laboratory results reported in patent US20190328898A1 (AGENSYS, published 2019).

What was measured:
[1] = target: T1, 161P2F10B protein (human, UniProt O14638 1-875); assay: cell-based or functional assay
T1 sequence: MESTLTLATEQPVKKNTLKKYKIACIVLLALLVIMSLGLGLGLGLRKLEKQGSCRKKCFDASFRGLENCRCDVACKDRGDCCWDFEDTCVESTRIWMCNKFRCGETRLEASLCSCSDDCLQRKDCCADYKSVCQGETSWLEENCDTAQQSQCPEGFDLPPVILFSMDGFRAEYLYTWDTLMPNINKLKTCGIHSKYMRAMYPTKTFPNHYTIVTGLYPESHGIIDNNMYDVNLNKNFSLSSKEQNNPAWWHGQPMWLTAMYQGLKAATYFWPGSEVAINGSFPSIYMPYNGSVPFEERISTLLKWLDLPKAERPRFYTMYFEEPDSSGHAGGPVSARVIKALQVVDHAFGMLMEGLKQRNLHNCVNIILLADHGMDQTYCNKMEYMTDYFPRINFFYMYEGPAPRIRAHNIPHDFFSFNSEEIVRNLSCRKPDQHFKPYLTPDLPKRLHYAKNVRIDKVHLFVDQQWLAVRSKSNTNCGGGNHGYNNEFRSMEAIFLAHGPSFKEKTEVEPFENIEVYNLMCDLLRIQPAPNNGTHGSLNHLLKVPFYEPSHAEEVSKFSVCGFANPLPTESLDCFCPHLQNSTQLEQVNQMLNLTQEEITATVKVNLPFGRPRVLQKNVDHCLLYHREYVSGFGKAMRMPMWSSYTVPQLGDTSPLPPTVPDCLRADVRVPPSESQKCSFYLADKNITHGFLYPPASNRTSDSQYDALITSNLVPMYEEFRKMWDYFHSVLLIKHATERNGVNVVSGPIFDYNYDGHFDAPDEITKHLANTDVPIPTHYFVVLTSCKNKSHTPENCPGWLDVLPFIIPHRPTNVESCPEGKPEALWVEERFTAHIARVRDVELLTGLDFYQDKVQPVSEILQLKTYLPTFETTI

[2] = target: T1, 161P2F10B protein; assay: FACS saturation binding on Ku812 cells, one site fit of MFI
Procedure: FIG. 6. Cell Binding and Affinity of H16-7.8 and H16-7.8mcMMAF. H16-7.8 and H16-7.8mcMMAF were tested for the binding affinity to 161P2F10B endogenously expressed on Ku812 cells. Briefly, eleven (11) dilutions of H16-7.8 or H16-7.8mcMMAF were incubated with Ku812 cells (50,000 cells per well) overnight at 4° C. at a final concentration of 160 nM to 0.0001 nM. At the end of the incubation, cells were washed and incubated with anti-hIgG-PE detection antibody for 45 min at 4° C. After washing the unbound detection antibodies, the cells were analyzed by FACS. Mean Florescence Intensity (MFI) values are obtained (See, Table IV). MFI values were entered into Graphpad Prisim software and analyzed using the one site binding (hyperbola) equation of Y=Bmax*X/(Kd+X) to generate H16-7.8 or H16-7.8mcMMAF saturation curves shown in FIG. 6. […]
H16-7.8 and H16-7.8mcMMAF were tested for the binding affinity to 161P2F10B endogenously expressed on Ku812 cells. […] After washing the unbound detection antibodies, the cells are analyzed by FACS. […] MFI values were entered into Graphpad Prisim software and analyzed using the one site binding (hyperbola) equation of Y=Bmax*X/(Kd+X) to generate H16-7.8 or H16-7.8mcMMAF saturation curves shown in FIG. 6. […]

[3] = target: T1, 161P2F10B protein; assay: FACS saturation binding on KU812 cells, twelve dilutions, one site fit, n=4
Procedure: H16-7.8 and H16-7.8mcMMAF were tested for their binding affinity to 161P2F10B expressed on KU812 cells (human chronic myelogenous leukemia cells, ATCC). Briefly, twelve (12) dilutions of H16-7.8 or H16-7.8mcMMAF were incubated with KU812 cells (50,000 cells per well) overnight at 4° C. at a final concentration of 160 nM to 0.004 nM. At the end of the incubation, cells are washed and incubated with anti-hIgG-PE detection antibody for 45 min at 4° C. After washing the unbound detection antibodies, the cells are analyzed by FACS.
MFI values were entered into Graphpad Prisim software and analyzed using the one site binding (hyperbola) equation of Y=Bmax*X/(Kd+X) to generate H16-7.8 and H16-7.8mcMMAF saturation curves. Bmax is the MFI value at maximal binding of H16-7.8 or H16-7.8mcMMAF to KU812; Kd is H16-7.8 or H16-7.8mcMMAF binding affinity which are the concentration of H16-7.8 or H16-7.8mcMMAF required to reach halfmaximal binding. […] (n=4).

Row | Binder | IC 50, inhibition of proliferation of KU812 cells (Alamar blue, 6 days), Lot (1) [1] | IC 50, inhibition of proliferation of KU812 cells (Alamar blue, 6 days), Lot (2) [1] | Specific cytotoxicity activity on KU812 cells, IC50 (Alamar Blue, 6 days) [1] | Kd [2] | Kd [3]
1 | H16-7.8mcMMAF (antibody, V domains shown, mcMMAF on the cysteine of peptide S208FNRGEC214 in part of the chains (0 or 1 drug per L chain); mcMMAF (maleimidocaproyl-monomethyl auristatin F) on cysteine thiols after partial reduction; predominantly 2 drugs on the hinge peptide C225-K250; 0 to 5 drugs per H chain observed; overall DAR 4.0, a mixture of drug loadings, predominant species 4 drugs; also called H16-7.8mcMMAF ADC; ADC H16-7.8mcMMAF) VH: QVQLQESGPGLVKPSQTLSLTCTVSGGSISSGGYYWSWIRQHPGKGLEWIGIIYYSGSTYYNPSLKSRVTISVDTSKNQFSLKLNSVTAADTAVFYCARVAIVTTIPGGMDVWGQGTTVTVSS VL: EIVLTQSPDFQSVTPKEKVTITCRASQSIGISLHWYQQKPDQSPKLLIKYASQSFSGVPSRFSGSGSGTDFTLTINSLEAEDAATYYCHQSRSFPWTFGQGTKVEIKR | 0.2 nM | 0.1 nM | 0.15 nM | 0.19 nM | 0.25 nM
2 | 161P2F10B MAb H16-7.8 (antibody, V domains shown, Fully human IgG2 kappa from XenoMouse; also called native H16-7.8; recombinant H16-7.8) VH: QVQLQESGPGLVKPSQTLSLTCTVSGGSISSGGYYWSWIRQHPGKGLEWIGIIYYSGSTYYNPSLKSRVTISVDTSKNQFSLKLNSVTAADTAVFYCARVAIVTTIPGGMDVWGQGTTVTVSS VL: EIVLTQSPDFQSVTPKEKVTITCRASQSIGISLHWYQQKPDQSPKLLIKYASQSFSGVPSRFSGSGSGTDFTLTINSLEAEDAATYYCHQSRSFPWTFGQGTKVEIKR |  |  |  | 0.06 nM | 0.08 nM
